Data taken from article PMC9482650, “Quantitative fragmentomics allow affinity mapping of interactomes” (Nature Communications, 2022).

Columns and labels:
Experiment in all cases: holdup assay
Parameters in all cases: key: below the threshold = too weak to quantify, mostly under pKd 3.1 to 4
Settings in all cases: plain residues with an end cap or a label only (N-terminal biotin on a linker: ado-ado)
[1] = target: MAGI1_2, Q96QZ7
[2] = target: T1, MPDZ_5, O75970
T1 sequence (O75970 695-796, limits assumed, looked up): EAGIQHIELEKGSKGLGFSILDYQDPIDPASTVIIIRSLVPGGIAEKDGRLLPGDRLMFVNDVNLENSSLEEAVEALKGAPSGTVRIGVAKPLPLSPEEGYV

[3] = target: MAGI3_2, Q5TCQ9
Sequence of MAGI3_2, Q5TCQ9 (Q5TCQ9 398-503): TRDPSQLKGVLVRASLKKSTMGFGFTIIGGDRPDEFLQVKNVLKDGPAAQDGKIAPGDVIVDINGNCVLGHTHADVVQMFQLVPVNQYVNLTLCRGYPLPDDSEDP

[4] = target: LDB3, O75112
Sequence of LDB3, O75112 (O75112 1-94): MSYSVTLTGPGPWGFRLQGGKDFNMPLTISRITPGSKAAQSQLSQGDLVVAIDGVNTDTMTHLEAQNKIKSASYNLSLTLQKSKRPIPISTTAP

[5] = target: T2, DLG3_2, Q92796
T2 sequence (Q92796 221-321, limits assumed, looked up): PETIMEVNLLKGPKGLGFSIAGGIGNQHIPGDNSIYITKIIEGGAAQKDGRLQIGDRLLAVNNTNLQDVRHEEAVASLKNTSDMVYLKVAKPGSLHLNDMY

[6] = target: IL16_1, Q14005
Sequence of IL16_1, Q14005 (Q14005 210-306): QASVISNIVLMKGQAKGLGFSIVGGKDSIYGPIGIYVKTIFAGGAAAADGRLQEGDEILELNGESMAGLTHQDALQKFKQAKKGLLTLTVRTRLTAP

[7] = target: T3, MPP6, Q9NZW5
T3 sequence (Q9NZW5 125-219, limits assumed, looked up): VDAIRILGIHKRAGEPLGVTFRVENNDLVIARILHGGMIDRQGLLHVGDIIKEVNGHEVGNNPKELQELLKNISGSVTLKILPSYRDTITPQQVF

[8] = target: MAGI2_3, Q86UL8
Sequence of MAGI2_3, Q86UL8 (Q86UL8 600-682): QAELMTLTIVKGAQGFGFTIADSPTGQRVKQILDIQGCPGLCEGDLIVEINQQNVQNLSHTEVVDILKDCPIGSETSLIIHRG

[9] = target: TJP2_1, Q9UDY2
Sequence of TJP2_1, Q9UDY2 (Q9UDY2 24-128): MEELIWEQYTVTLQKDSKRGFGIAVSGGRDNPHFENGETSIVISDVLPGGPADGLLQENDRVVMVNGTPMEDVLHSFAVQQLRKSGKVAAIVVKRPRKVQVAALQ

[10] = target: T4, LIN7A, O14910
T4 sequence (O14910 103-200, limits assumed, looked up): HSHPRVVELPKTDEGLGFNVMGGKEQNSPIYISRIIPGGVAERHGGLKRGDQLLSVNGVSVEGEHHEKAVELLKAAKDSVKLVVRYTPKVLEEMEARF

[11] = target: T5, GRIP1_5, Q9Y3R0
T5 sequence (Q9Y3R0 568-668, limits assumed, looked up): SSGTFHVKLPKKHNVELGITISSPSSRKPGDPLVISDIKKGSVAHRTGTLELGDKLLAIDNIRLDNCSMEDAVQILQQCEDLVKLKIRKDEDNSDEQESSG

[12] = target: PDLIM1, O00151
Sequence of PDLIM1, O00151 (O00151 1-87): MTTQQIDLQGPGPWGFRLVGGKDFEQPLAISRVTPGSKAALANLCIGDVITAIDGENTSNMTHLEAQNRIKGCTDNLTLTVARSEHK

[13] = target: DLG5_1, Q8TDM6
Sequence of DLG5_1, Q8TDM6 (Q8TDM6 617-713): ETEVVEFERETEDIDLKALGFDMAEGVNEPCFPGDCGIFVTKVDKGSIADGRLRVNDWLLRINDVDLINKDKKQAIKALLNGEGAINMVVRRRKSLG

[14] = target: GORASP2, Q9H8Y8
[15] = target: GRASP, Q7Z6J2
Sequence of GRASP, Q7Z6J2 (Q7Z6J2 96-193): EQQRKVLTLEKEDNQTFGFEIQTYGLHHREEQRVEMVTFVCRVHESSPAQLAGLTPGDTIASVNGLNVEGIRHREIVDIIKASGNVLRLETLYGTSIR

[16] = target: MAGI2_2, Q86UL8
Sequence of MAGI2_2, Q86UL8 (Q86UL8 410-522): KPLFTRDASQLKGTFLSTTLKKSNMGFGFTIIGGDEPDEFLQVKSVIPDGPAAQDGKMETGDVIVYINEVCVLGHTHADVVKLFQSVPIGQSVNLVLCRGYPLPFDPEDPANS

[17] = target: SCRIB_2, Q14160
Sequence of SCRIB_2, Q14160 (Q14160 857-960): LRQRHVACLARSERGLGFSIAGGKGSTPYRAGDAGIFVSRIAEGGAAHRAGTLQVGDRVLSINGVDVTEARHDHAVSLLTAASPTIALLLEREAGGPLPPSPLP

[18] = target: SCRIB_3, Q14160
Sequence of SCRIB_3, Q14160 (Q14160 999-1103): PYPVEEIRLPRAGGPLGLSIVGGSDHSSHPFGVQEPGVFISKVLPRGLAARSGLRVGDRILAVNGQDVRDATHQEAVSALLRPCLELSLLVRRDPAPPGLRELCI

[19] = target: DLG2_2, Q15700
Sequence of DLG2_2, Q15700 (Q15700 189-283): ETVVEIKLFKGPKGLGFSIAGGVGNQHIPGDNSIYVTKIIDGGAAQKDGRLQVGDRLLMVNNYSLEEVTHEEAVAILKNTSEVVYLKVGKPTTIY

[20] = target: TJP1_2, Q07157
Sequence of TJP1_2, Q07157 (Q07157 181-274): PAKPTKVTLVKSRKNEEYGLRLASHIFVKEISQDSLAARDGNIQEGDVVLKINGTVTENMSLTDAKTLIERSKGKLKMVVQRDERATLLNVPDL

[21] = target: ARHGEF12, Q9NZN5-2
Sequence of ARHGEF12, Q9NZN5-2 (Q9NZN5 other isoform, or with tags, fused parts or gaps): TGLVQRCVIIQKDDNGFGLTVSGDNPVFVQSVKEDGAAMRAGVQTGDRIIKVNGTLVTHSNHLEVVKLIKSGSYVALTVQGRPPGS

[22] = target: T6, DLG3_3, Q92796
T6 sequence (Q92796 374-475, limits assumed, looked up): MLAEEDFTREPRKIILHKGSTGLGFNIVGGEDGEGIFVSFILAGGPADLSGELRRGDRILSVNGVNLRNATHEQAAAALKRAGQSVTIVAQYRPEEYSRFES

[23] = target: T7, APBA1_1, Q02410
T7 sequence (Q02410 651-752, limits assumed, looked up): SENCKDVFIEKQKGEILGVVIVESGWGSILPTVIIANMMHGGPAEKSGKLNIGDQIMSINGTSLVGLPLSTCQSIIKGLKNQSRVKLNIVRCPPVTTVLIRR

[24] = target: T8, SHANK1, Q9Y566
T8 sequence (Q9Y566 658-767, limits assumed, looked up): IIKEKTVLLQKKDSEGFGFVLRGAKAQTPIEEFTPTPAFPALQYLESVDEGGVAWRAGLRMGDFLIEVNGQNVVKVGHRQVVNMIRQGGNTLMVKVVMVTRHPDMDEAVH

[25] = target: DLG4_3, P78352
Sequence of DLG4_3, P78352 (P78352 306-403): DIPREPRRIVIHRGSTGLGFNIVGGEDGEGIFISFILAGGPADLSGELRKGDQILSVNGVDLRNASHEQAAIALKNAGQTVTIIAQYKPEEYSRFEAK

[26] = target: FRMPD4, Q14CM0
Sequence of FRMPD4, Q14CM0 (Q14CM0 67-160): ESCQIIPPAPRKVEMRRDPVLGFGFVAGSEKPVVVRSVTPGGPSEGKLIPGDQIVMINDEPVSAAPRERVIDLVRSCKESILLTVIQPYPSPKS

[27] = target: T9, SIPA1L2, Q9P2F8
T9 sequence (Q9P2F8 945-1036, limits assumed, looked up): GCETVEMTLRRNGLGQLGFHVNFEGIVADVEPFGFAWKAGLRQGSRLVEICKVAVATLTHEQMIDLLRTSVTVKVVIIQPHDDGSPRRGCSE

[28] = target: T10, RADIL, Q96JH8
T10 sequence (Q96JH8 971-1071, limits assumed, looked up): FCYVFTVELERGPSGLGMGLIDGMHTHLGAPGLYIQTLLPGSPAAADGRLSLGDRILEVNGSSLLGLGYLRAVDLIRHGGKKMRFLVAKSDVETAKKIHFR

Sequence of MAGI1_2, Q96QZ7 (Q96QZ7 456-580): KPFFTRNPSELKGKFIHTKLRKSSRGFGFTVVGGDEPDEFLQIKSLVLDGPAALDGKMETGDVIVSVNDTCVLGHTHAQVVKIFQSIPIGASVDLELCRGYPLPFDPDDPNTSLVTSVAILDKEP

| Binder | pKd [1] | pKd [2] | pKd [3] | pKd [4] | pKd [5] | pKd [6] | pKd [7] | pKd [8] | pKd [9] | pKd [10] | pKd [11] | pKd [12] | pKd [13] | pKd [14] | pKd [15] | pKd [16] | pKd [17] | pKd [18] | pKd [19] | pKd [20] | other results |
| --- | --- | --- | --- | --- | --- | --- | --- | --- | --- | --- | --- | --- | --- | --- | --- | --- | --- | --- | --- | --- | --- |
| PSDSVGKDVF [EGLN1, Q9GZT9] | below the threshold | below the threshold | below the threshold | below the threshold | 4.07 | below the threshold | below the threshold | below the threshold | below the threshold | below the threshold | below the threshold | below the threshold | below the threshold | below the threshold | 3.7 | below the threshold | below the threshold | below the threshold | below the threshold | below the threshold | pKd [21]: below the threshold; pKd [22]: below the threshold; pKd [23]: below the threshold; pKd [24]: below the threshold; pKd [25]: below the threshold; pKd [26]: below the threshold; pKd [27]: below the threshold; pKd [28]: below the threshold |
| THREVKFTSL [CD46, P15529] | 3.81 | below the threshold | below the threshold | below the threshold | 4.23 | below the threshold | below the threshold | below the threshold | 3.73 | below the threshold | below the threshold | below the threshold | below the threshold | below the threshold | 4.77 | 3.88 | 3.67 | 4.8 | 3.57 | below the threshold | pKd [21]: 5.37; pKd [22]: 4.21; pKd [23]: below the threshold; pKd [24]: 4.39; pKd [25]: 4.3; pKd [26]: 4.16; pKd [27]: below the threshold; pKd [28]: 3.49 |
| QKNKDREYYV [NRXN3, Q9HDB5] | below the threshold | 4.71 | 4.75 | below the threshold | 3.65 | 3.72 | 4.25 | below the threshold | 3.52 | below the threshold | below the threshold | below the threshold | below the threshold | 4.67 | below the threshold | 4.32 | below the threshold | below the threshold | below the threshold | 3.57 | pKd [21]: 3.65; pKd [22]: below the threshold; pKd [23]: below the threshold; pKd [24]: below the threshold; pKd [25]: below the threshold; pKd [26]: 4.4; pKd [27]: below the threshold; pKd [28]: 4.7 |
